tested on: MCF10A; experiment: percent viability (nuclei count relative to siNT); higher = more viable cells; details: 20 nM; 72 h
Description: (§1)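 After 72 h, cells were fixed and stained with Hoechst and anti-fibrillarin, and nucleoli per nucleus were counted with CellProfiler. Values are plate-adjusted percent effect for the one-nucleolus and 5+ nucleoli phenotypes, normalised to siNT (0%) and to the positive controls siNOL11 or siKIF11 (100%), as the mean of biological triplicates. Percent viability is the nuclei count relative to siNT.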

Q: How did the percent viability turn out when UCAGUUCCAGGCCAACCAGGCU [hsa-miR-584-3p] was run?
A: 43.9%

Q: AGAAGGGAAGAUGGUGAC [hsa-miR-7515] was tested. Which percent viability did it give?
A: 42.5%

Q: How did the percent viability turn out when UGAGGUAGUAAGUUGUAUUGUU [hsa-miR-98-5p] was run?
A: 30%

Q: How did the percent viability turn out when AGUAUGUUCUUCCAGGACAGAAC [hsa-miR-567] was run?
A: 56.1%

Q: With “GAGGUUUUCUGGGUUUCUGUUUC [hsa-miR-329-5p]” as the sequence, how does the percent viability read?
A: 56%

Q: With ACCGUCUCUUCUGUUCCCCAG [hsa-miR-6827-3p] as the sequence, how does the percent viability read?
A: 64.6%

Q: How did the percent viability turn out when UGAGGGAGUGGGUGGGAGG [hsa-miR-6127] was run?
A: 39.8%

Q: How did the percent viability turn out when “UAGGUAGAGUGUGAGGAGGAGGUC [hsa-miR-6831-5p]” was run?
A: 53.8%

Q: UCCUGCCACCUCCUCCGCAG [hsa-miR-6727-3p] was tested. Which percent viability did it give?
A: 32.5%

Q: How did the percent viability turn out when “UAGGCAGUGUCAUUAGCUGAUUG [hsa-miR-34b-5p]” was run?
A: 17.6%

Q: For CUACAAAGGGAAGCCCUUUC [hsa-miR-520d-5p], which percent viability is on record?
A: 39.7%

Q: How did the percent viability turn out when UGCCUCCUCCGUGGCCUCAG [hsa-miR-6829-3p] was run?
A: 22.7%

Q: For “AAGGCCCGGGCUUUCCUCCCAG [hsa-miR-4747-3p]”, which percent viability is on record?
A: 29.2%

Q: With CCAGUUUUCCCAGGAUU [hsa-miR-4328] as the sequence, how does the percent viability read?
A: 108%

Q: Which percent viability does the source give for CAGCAGUGCGCAGGGCUG [hsa-miR-4519] here?
A: 27.2%

Q: For UGAGGUAGUAGUUUGUGCUGUU [hsa-let-7i-5p], which percent viability is on record?
A: 16.5%

Q: Which percent viability does the source give for “UUUCUUCUUAGACAUGGCAGCU [hsa-miR-4659b-3p]” here?
A: 31.6%

Q: For GAAAAUGAUGAGUAGUGACUGAUG [hsa-miR-3662], which percent viability is on record?
A: 88.3%

Q: Which percent viability does the source give for “CGCGCCUGCAGGAACUGGUAGA [hsa-miR-6720-3p]” here?
A: 57.7%

Q: With UCCUUCAUUCCACCGGAGUCUG [hsa-miR-205-5p] as the sequence, how does the percent viability read?
A: 67.4%

Q: How did the percent viability turn out when “AUAGUGGGAAGCUGGCAGAUUC [hsa-miR-4727-3p]” was run?
A: 16.6%

Q: With “CUGACUGAAUAGGUAGGGUCAUU [hsa-miR-3136-5p]” as the sequence, how does the percent viability read?
A: 32.7%

Q: With AAGGAACCAGAAAAUGAGAAGU [hsa-miR-3914] as the sequence, how does the percent viability read?
A: 111%

Q: Which percent viability does the source give for GGCGGAGGGAAGUAGGUCCGUUGGU [hsa-miR-658] here?
A: 63%

Q: With “UAAUACUGCCUGGUAAUGAUGA [hsa-miR-200b-3p]” as the sequence, how does the percent viability read?
A: 104%

Q: For UUACACAGCUGGACAGAGGCA [hsa-miR-4672], which percent viability is on record?
A: 17.6%

Q: “UUGAACUGUUAAGAACCACUGGA [hsa-miR-203b-3p]” was tested. Which percent viability did it give?
A: 36.7%

Q: How did the percent viability turn out when “CUGGGGGACGCGUGAGCGCGAGC [hsa-miR-4665-5p]” was run?
A: 31.2%

Q: How did the percent viability turn out when “UGCCUACUGAGCUGAAACACAG [hsa-miR-24-2-5p]” was run?
A: 46.7%

Q: Which percent viability does the source give for “AGCUCCCUGAAUCCCUGUCCCAG [hsa-miR-7106-3p]” here?
A: 74.6%

tested on: MCF10A; experiment: one-nucleolus phenotype percent effect (relative to siNT 0% and siNOL11 100%); higher = more cells with one nucleolus (ribosome biogenesis inhibition); details: 20 nM; 72 h
Description: as §1

Q: With “UGGCCCAACCUAUUCAGUUAGU [hsa-miR-3136-3p]” as the sequence, how does the “one-nucleolus phenotype percent effect” value read?
A: -25.2%

Q: “UGCCUCUUUUCCACGGCCUCAG [hsa-miR-6781-3p]” was tested. Which “one-nucleolus phenotype percent effect” value did it give?
A: -1.18%

Q: Which “one-nucleolus phenotype percent effect” value does the source give for AGGUUGACAUACGUUUCCC [hsa-miR-563] here?
A: -18%

Q: With AAAACCGUCUAGUUACAGUUGU [hsa-miR-1537] as the sequence, how does the “one-nucleolus phenotype percent effect” value read?
A: -11.1%

Q: For “GACUCACUCACAGGAUUGUGCA [hsa-miR-3680-5p]”, which “one-nucleolus phenotype percent effect” value is on record?
A: -12%

Q: How did the “one-nucleolus phenotype percent effect” value turn out when UGACCCACCCCUCUCCACCAG [hsa-miR-7114-3p] was run?
A: 6.96%

Q: How did the “one-nucleolus phenotype percent effect” value turn out when GCGACCCACUCUUGGUUUCCA [hsa-miR-551a] was run?
A: -18%

Q: With “CGCCUCUUCAGCGCUGUCUUCC [hsa-miR-2682-3p]” as the sequence, how does the “one-nucleolus phenotype percent effect” value read?
A: -7.1%

Q: AAAGGUGCUCAAAUUAGACAU [hsa-miR-4735-3p] was tested. Which “one-nucleolus phenotype percent effect” value did it give?
A: 43%

Q: “UGGGAAAGACAAACUCAGAGUU [hsa-miR-6733-5p]” was tested. Which “one-nucleolus phenotype percent effect” value did it give?
A: 5.71%

Q: How did the “one-nucleolus phenotype percent effect” value turn out when UGAGAACCACGUCUGCUCUGAG [hsa-miR-589-5p] was run?
A: -14.3%

Q: With CCCUGGGGUUCUGAGGACAUG [hsa-miR-6852-5p] as the sequence, how does the “one-nucleolus phenotype percent effect” value read?
A: 8.28%

Q: For “UGUUCAUUGGAACCCUGCGCAG [hsa-miR-6853-3p]”, which “one-nucleolus phenotype percent effect” value is on record?
A: -28.7%

Q: For UCUGGCAAGUAAAAAACUCUCAU [hsa-miR-3128], which “one-nucleolus phenotype percent effect” value is on record?
A: 10.4%

Q: How did the “one-nucleolus phenotype percent effect” value turn out when “UGGUUCUCUUGUGGCUCAAGCGU [hsa-miR-597-3p]” was run?
A: 44.1%

Q: UCAUUUUUGUGAUGUUGCAGCU [hsa-miR-153-5p] was tested. Which “one-nucleolus phenotype percent effect” value did it give?
A: -16.7%

Q: Which “one-nucleolus phenotype percent effect” value does the source give for UGAGGUAGGAGGUUGUAUAGUU [hsa-let-7e-5p] here?
A: -8.3%

Q: For “UUGUGGGUGGGCAGAAGUCUGU [hsa-miR-6759-5p]”, which “one-nucleolus phenotype percent effect” value is on record?
A: 49.5%

Q: For “CAGUUCUGCUGUUCUGACUCUAG [hsa-miR-6874-3p]”, which “one-nucleolus phenotype percent effect” value is on record?
A: -4.11%

Q: How did the “one-nucleolus phenotype percent effect” value turn out when “UGAGGCUCUGUUAGCCUUGGCUC [hsa-miR-2467-5p]” was run?
A: 37.5%

Q: “AAAAGUAACUAUGGUUUUUGCC [hsa-miR-548bb-5p]” was tested. Which “one-nucleolus phenotype percent effect” value did it give?
A: -28.8%

Q: “UCAGUGCAUCACAGAACUUUGU [hsa-miR-148b-3p]” was tested. Which “one-nucleolus phenotype percent effect” value did it give?
A: -21.1%

Q: “UGUUGUACUUUUUUUUUUGUUC [hsa-miR-3613-5p]” was tested. Which “one-nucleolus phenotype percent effect” value did it give?
A: -10.4%

Q: “AGGGGACCAAAGAGAUAUAUAG [hsa-miR-3144-5p]” was tested. Which “one-nucleolus phenotype percent effect” value did it give?
A: -9.41%

Q: With AUUUGUGCUUGGCUCUGUCAC [hsa-miR-2113] as the sequence, how does the “one-nucleolus phenotype percent effect” value read?
A: -12.4%

Q: For AACCCGUAGAUCCGAACUUGUG [hsa-miR-100-5p], which “one-nucleolus phenotype percent effect” value is on record?
A: 9.92%

Q: How did the “one-nucleolus phenotype percent effect” value turn out when “UUUCCUGUCCUCCAACCAGACC [hsa-miR-7152-5p]” was run?
A: 11.7%

Q: How did the “one-nucleolus phenotype percent effect” value turn out when UGCAAGACGGAUACUGUCAUCU [hsa-miR-4696] was run?
A: -7.62%

Q: For CCGCUUUCUGAGCUGGAC [hsa-miR-4315], which “one-nucleolus phenotype percent effect” value is on record?
A: 34.8%

Q: For UCAGUUCCAGGCCAACCAGGCU [hsa-miR-584-3p], which “one-nucleolus phenotype percent effect” value is on record?
A: 19.6%

Q: For AGAAGGGAAGAUGGUGAC [hsa-miR-7515], which “one-nucleolus phenotype percent effect” value is on record?
A: -2.73%

Q: For UGAGGUAGUAAGUUGUAUUGUU [hsa-miR-98-5p], which “one-nucleolus phenotype percent effect” value is on record?
A: -13%

Q: For AGUAUGUUCUUCCAGGACAGAAC [hsa-miR-567], which “one-nucleolus phenotype percent effect” value is on record?
A: 8.77%

Q: For “GAGGUUUUCUGGGUUUCUGUUUC [hsa-miR-329-5p]”, which “one-nucleolus phenotype percent effect” value is on record?
A: -9.91%

Q: Which “one-nucleolus phenotype percent effect” value does the source give for ACCGUCUCUUCUGUUCCCCAG [hsa-miR-6827-3p] here?
A: 16.9%

Q: How did the “one-nucleolus phenotype percent effect” value turn out when UGAGGGAGUGGGUGGGAGG [hsa-miR-6127] was run?
A: 3.31%

Q: How did the “one-nucleolus phenotype percent effect” value turn out when “UAGGUAGAGUGUGAGGAGGAGGUC [hsa-miR-6831-5p]” was run?
A: -21%

Q: UCCUGCCACCUCCUCCGCAG [hsa-miR-6727-3p] was tested. Which “one-nucleolus phenotype percent effect” value did it give?
A: 19.2%

Q: How did the “one-nucleolus phenotype percent effect” value turn out when “UAGGCAGUGUCAUUAGCUGAUUG [hsa-miR-34b-5p]” was run?
A: 35.6%

Q: Which “one-nucleolus phenotype percent effect” value does the source give for CUACAAAGGGAAGCCCUUUC [hsa-miR-520d-5p] here?
A: 28.4%

Q: How did the “one-nucleolus phenotype percent effect” value turn out when UGCCUCCUCCGUGGCCUCAG [hsa-miR-6829-3p] was run?
A: 0.866%

Q: “AAGGCCCGGGCUUUCCUCCCAG [hsa-miR-4747-3p]” was tested. Which “one-nucleolus phenotype percent effect” value did it give?
A: 31.7%

Q: For CCAGUUUUCCCAGGAUU [hsa-miR-4328], which “one-nucleolus phenotype percent effect” value is on record?
A: -38.7%

Q: With CAGCAGUGCGCAGGGCUG [hsa-miR-4519] as the sequence, how does the “one-nucleolus phenotype percent effect” value read?
A: 8.95%

Q: How did the “one-nucleolus phenotype percent effect” value turn out when UGAGGUAGUAGUUUGUGCUGUU [hsa-let-7i-5p] was run?
A: -11.8%

Q: For “UUUCUUCUUAGACAUGGCAGCU [hsa-miR-4659b-3p]”, which “one-nucleolus phenotype percent effect” value is on record?
A: -5.32%

Q: GAAAAUGAUGAGUAGUGACUGAUG [hsa-miR-3662] was tested. Which “one-nucleolus phenotype percent effect” value did it give?
A: -17.5%

Q: Which “one-nucleolus phenotype percent effect” value does the source give for “CGCGCCUGCAGGAACUGGUAGA [hsa-miR-6720-3p]” here?
A: -13.6%

Q: With UCCUUCAUUCCACCGGAGUCUG [hsa-miR-205-5p] as the sequence, how does the “one-nucleolus phenotype percent effect” value read?
A: 21%

Q: Which “one-nucleolus phenotype percent effect” value does the source give for “AUAGUGGGAAGCUGGCAGAUUC [hsa-miR-4727-3p]” here?
A: 52.3%

Q: “CUGACUGAAUAGGUAGGGUCAUU [hsa-miR-3136-5p]” was tested. Which “one-nucleolus phenotype percent effect” value did it give?
A: 24.8%

Q: With AAGGAACCAGAAAAUGAGAAGU [hsa-miR-3914] as the sequence, how does the “one-nucleolus phenotype percent effect” value read?
A: -40.6%

Q: With GGCGGAGGGAAGUAGGUCCGUUGGU [hsa-miR-658] as the sequence, how does the “one-nucleolus phenotype percent effect” value read?
A: -9.25%

Q: With “UAAUACUGCCUGGUAAUGAUGA [hsa-miR-200b-3p]” as the sequence, how does the “one-nucleolus phenotype percent effect” value read?
A: -28.6%

Q: How did the “one-nucleolus phenotype percent effect” value turn out when UUACACAGCUGGACAGAGGCA [hsa-miR-4672] was run?
A: 38.5%

Q: For “UUGAACUGUUAAGAACCACUGGA [hsa-miR-203b-3p]”, which “one-nucleolus phenotype percent effect” value is on record?
A: 29.5%

Q: Which “one-nucleolus phenotype percent effect” value does the source give for “CUGGGGGACGCGUGAGCGCGAGC [hsa-miR-4665-5p]” here?
A: 18.8%

Q: How did the “one-nucleolus phenotype percent effect” value turn out when “UGCCUACUGAGCUGAAACACAG [hsa-miR-24-2-5p]” was run?
A: 7.59%

Q: With “AGCUCCCUGAAUCCCUGUCCCAG [hsa-miR-7106-3p]” as the sequence, how does the “one-nucleolus phenotype percent effect” value read?
A: -19.5%
